± gives the standard deviation of the averaged measurements.
System: Saccharomyces cerevisiae
Test: protein stability index of tFT-peptide fusion (C-terminal peptide) (PSI (0-1 scale)); higher = more stable (slower turnover)
Details: temperature: 30 C
Method: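 MPS profiling in S. cerevisiae of the yeast C-terminome library: the last 12 aa of each annotated ORF are fused to the C-terminus of a sfGFP-mCherry timer, after a GGGS linker. Cells are FACS-sorted into 8 mCherry/sfGFP bins and deep-sequenced. PSI runs from 0 (unstable) to 1 (stable); wild type and das1Δ backgrounds, two technical replicates each.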

[1] = genetic background: das1 deletion

| Sequence | protein stability index [1] | protein stability index (genetic background: wild type) |
| --- | --- | --- |
| QSMLDGNSPESV [DCR2 C-terminal 12 aa] | 0.6985 ± 0.0053 | 0.693 ± 0.021 |
| QTILKNKKKISQ [GYP6 C-terminal 12 aa] | 0.701 ± 0.049 | 0.6842 ± 0.0023 |
| QTVRKLDMDFEV [REV1 C-terminal 12 aa] | 0.735 ± 0.032 | 0.656 ± 0.03 |
| QVYYELGQIPFE [MET18 C-terminal 12 aa] | 0.738 ± 0.0075 | 0.71 ± 0.011 |
| QYMTSGYASNWN [YAR061W C-terminal 12 aa] | 0.715 ± 0.11 | 0.754 ± 0.096 |
| QYQHQHQQDPRT [NAF1 C-terminal 12 aa] | 0.701 ± 0.014 | 0.728 ± 0.049 |
| RATLNSVNSFLM [RIT1 C-terminal 12 aa] | 0.681 ± 0.013 | 0.673 ± 0.023 |
| RAVSGVELRIYV [POP7 C-terminal 12 aa] | 0.644 ± 0.012 | 0.641 ± 0.017 |
| RAVTNRSSCSRR [YCR038W-A C-terminal 12 aa] | 0.697 ± 0.011 | 0.689 ± 0.0074 |
| RDAEILAKIAKD [HSP10 C-terminal 12 aa] | 0.683 ± 0.021 | 0.677 ± 0.0077 |
| RDMVELMKFYEL [HOS1 C-terminal 12 aa] | 0.715 ± 0.0096 | 0.6886 ± 0.0047 |
| RDVLDDGSNIMS [IAH1 C-terminal 12 aa] | 0.6824 ± 0.0049 | 0.7 ± 0.0082 |
| REITKCKQIFHK [PTR3 C-terminal 12 aa] | 0.691 ± 0.02 | 0.686 ± 0.028 |
| REWFDIELNFSK [PMT4 C-terminal 12 aa] | 0.7467 ± 0.0068 | 0.73 ± 0.024 |
| RGENGQFWIGTK [BNI5 C-terminal 12 aa] | 0.744 ± 0.027 | 0.702 ± 0.03 |
| RGIAAIRESLSN [YIR042C C-terminal 12 aa] | 0.6681 ± 0.006 | 0.697 ± 0.02 |
| RHELQALQAEIN [END3 C-terminal 12 aa] | 0.715 ± 0.018 | 0.614 ± 0.018 |
| RHRKSEDRSLEA [ATR2 C-terminal 12 aa] | 0.706 ± 0.029 | 0.703 ± 0.062 |
| RIAAGDGDDDDE [QCR9 C-terminal 12 aa] | 0.7068 ± 0.0027 | 0.674 ± 0.041 |
| RIEQNRPDDGVY [FMP16 C-terminal 12 aa] | 0.682 ± 0.068 | 0.65 ± 0.017 |
| RIYHVYGRFLIH [NCA2 C-terminal 12 aa] | 0.671 ± 0.027 | 0.404 ± 0.027 |

| Sequence | protein stability index [1] | protein stability index (genetic background: wild type) |
| --- | --- | --- |
| RKCRVYVIQDAF [YER084W-A C-terminal 12 aa] | 0.6849 ± 0.0056 | 0.67829 ± 0.00013 |
| RKFHVVDTSLFA [MOG1 C-terminal 12 aa] | 0.688 ± 0.01 | 0.688 ± 0.05 |
| RKSKKDTDSDSD [BMT5 C-terminal 12 aa] | 0.7 ± 0.023 | 0.695 ± 0.055 |
| RKTIRRDLASLV [TMA108 C-terminal 12 aa] | 0.691 ± 0.01 | 0.571 ± 0.031 |
| RLEKEAKIKQEE [CDC11 C-terminal 12 aa] | 0.6967 ± 0.0039 | 0.678 ± 0.032 |
| RLGLDWQPDSVS [MTH1 C-terminal 12 aa] | 0.695 ± 0.01 | 0.686 ± 0.039 |
| RLLGPCFKTGGI [YLR154W-B C-terminal 12 aa] | 0.696 ± 0.0085 | 0.675 ± 0.043 |
| RLNKLEAVLQTL [PML39 C-terminal 12 aa] | 0.685 ± 0.033 | 0.72 ± 0.011 |
| RLSMLRPPSSSS [RSC2 C-terminal 12 aa] | 0.7185 ± 0.0066 | 0.7059 ± 0.0021 |
| RMHRRLPFPTLN [YJR142W C-terminal 12 aa] | 0.699 ± 0.025 | 0.548 ± 0.013 |
| RNNEHSHKKYNQ [YER090C-A C-terminal 12 aa] | 0.711 ± 0.0081 | 0.729 ± 0.092 |
| RRAAIHPYFQES [CDC28 C-terminal 12 aa] | 0.729 ± 0.013 | 0.687 ± 0.015 |
| RRHFSERRLENK [YPR074W-A C-terminal 12 aa] | 0.684 ± 0.022 | 0.73 ± 0.025 |
| RRPSSTSQYLIR [CDC20 C-terminal 12 aa] | 0.692 ± 0.01 | 0.679 ± 0.038 |
| RSNEEMYSWSRN [SPO74 C-terminal 12 aa] | 0.698 ± 0.039 | 0.692 ± 0.0082 |
| RTQGEGQGSMFR [TAF11 C-terminal 12 aa] | 0.7233 ± 0.0027 | 0.6719 ± 0.0047 |
| RTRPPTAVAHIA [DUG3 C-terminal 12 aa] | 0.6938 ± 0.0057 | 0.337 ± 0.0086 |
| RTTFRTLSSYGK [YHL041W C-terminal 12 aa] | 0.713 ± 0.0099 | 0.648 ± 0.037 |
| RTTGHNLKQDFN [BUD4 C-terminal 12 aa] | 0.696 ± 0.022 | 0.653 ± 0.017 |
| RVVDLVEHVAKA [TDH2 C-terminal 12 aa] | 0.705 ± 0.026 | 0.6748 ± 0.0044 |
| RVYTEQNVPVVS [YNL194C C-terminal 12 aa] | 0.6679 ± 0.0046 | 0.684 ± 0.039 |

| Sequence | protein stability index [1] | protein stability index (genetic background: wild type) |
| --- | --- | --- |
| RWELVRESWREL [HSV2 C-terminal 12 aa] | 0.703 ± 0.03 | 0.786 ± 0.086 |
| RYENFINMARHK [YOR097C C-terminal 12 aa] | 0.816 ± 0.054 |  |
| SAIADDDEEHKE [LHP1 C-terminal 12 aa] | 0.7103 ± 0.0044 | 0.678 ± 0.051 |
| SAIEEGISLNKG [TEL2 C-terminal 12 aa] | 0.7058 ± 0.0048 | 0.701 ± 0.012 |
| SAQRDRRYRKRN [RPS17B C-terminal 12 aa] | 0.721 ± 0.049 | 0.649 ± 0.018 |
| SATFTSDHIGHI [RIM21 C-terminal 12 aa] | 0.7167 ± 0.0052 | 0.685 ± 0.042 |
| SDEFVDASEYKD [UTP9 C-terminal 12 aa] | 0.7 ± 0.044 | 0.6722 ± 0.0063 |
| SDELSRNFDSQG [VPS3 C-terminal 12 aa] | 0.705 ± 0.017 | 0.726 ± 0.015 |
| SDVAKQLAALGY [RPL16A C-terminal 12 aa] | 0.698 ± 0.024 | 0.677 ± 0.012 |
| SETIEELLKEVE [HYR1 C-terminal 12 aa] | 0.708 ± 0.0081 | 0.7 ± 0.015 |
| SFDVLAKVPNAA [RPA190 C-terminal 12 aa] | 0.692 ± 0.011 | 0.655 ± 0.011 |
| SFNEVVKEVQAL [NHP2 C-terminal 12 aa] | 0.687 ± 0.017 | 0.692 ± 0.019 |
| SFRLTKRQTDND [POS5 C-terminal 12 aa] | 0.7021 ± 0.0053 | 0.709 ± 0.033 |
| SFSYLWRNFGFI [PDR18 C-terminal 12 aa] | 0.7475 ± 0.0067 | 0.716 ± 0.027 |
| SGAGARGSSAAA [LYS2 C-terminal 12 aa] | 0.702 ± 0.011 | 0.676 ± 0.032 |
| SGPSAMTKFGPR [ARP2 C-terminal 12 aa] | 0.69 ± 0.032 | 0.6842 ± 0.0042 |
| SIDQFRGKLNSI [URA1 C-terminal 12 aa] | 0.701 ± 0.015 | 0.688 ± 0.013 |
| SIFIASLLLAIV [FLO10 C-terminal 12 aa] | 0.226 ± 0.0053 | 0.237 ± 0.0032 |
| SILRIDDIAFSR [CCT4 C-terminal 12 aa] | 0.739 ± 0.033 | 0.71 ± 0.034 |
| SIYILNVIRNAQ [YGR117C C-terminal 12 aa] | 0.6687 ± 0.0012 | 0.538 ± 0.0088 |
| SKEKARALGSNF [GTT1 C-terminal 12 aa] | 0.712 ± 0.016 | 0.686 ± 0.013 |

| Sequence | protein stability index [1] | protein stability index (genetic background: wild type) |
| --- | --- | --- |
| SKGSPINTQYVF [AGA2 C-terminal 12 aa] | 0.731 ± 0.02 | 0.732 ± 0.056 |
| SKKTTISAKKQQ [SGE1 C-terminal 12 aa] | 0.713 ± 0.014 | 0.51092 ± 0.00037 |
| SKQEKPLSRPKD [GPI15 C-terminal 12 aa] | 0.718 ± 0.013 | 0.684 ± 0.022 |
| SKSFPTAGEMRA [PET8 C-terminal 12 aa] | 0.711 ± 0.035 | 0.7283 ± 0.0038 |
| SKTSHNPNEQSV [PDR11 C-terminal 12 aa] | 0.6953 ± 0.0037 | 0.687 ± 0.025 |
| SKYNCNIPACCV [YLR122C C-terminal 12 aa] | 0.654 ± 0.017 | 0.6636 ± 0.0051 |
| SLDGDTYFIIRS [YDL158C C-terminal 12 aa] | 0.713 ± 0.024 | 0.688 ± 0.033 |
| SLRIEAIKKGFV [SPS1 C-terminal 12 aa] | 0.727 ± 0.048 | 0.675 ± 0.029 |
| SMDEEFKNMDCI [SIR3 C-terminal 12 aa] | 0.706 ± 0.0084 | 0.701 ± 0.05 |
| SNKKLKSQWLIK [EMC1 C-terminal 12 aa] | 0.722 ± 0.017 | 0.665 ± 0.0081 |
| SNNPKLHHAKEA [MEP3 C-terminal 12 aa] | 0.696 ± 0.041 | 0.375 ± 0.013 |
| SQAGLMSNEEVL [CCC2 C-terminal 12 aa] | 0.69664 ± 0.00011 | 0.699 ± 0.022 |
| SQRPAKGVPEGF [VPS72 C-terminal 12 aa] | 0.69 ± 0.024 | 0.733 ± 0.051 |
| SRFDYLTRKNAL [CBK1 C-terminal 12 aa] | 0.6716 ± 0.0016 | 0.71 ± 0.051 |
| SRFEVACEQKAA [BSC2 C-terminal 12 aa] | 0.579 ± 0.019 | 0.592 ± 0.019 |
| SRFRTNRLKGDQ [YNL042W-B C-terminal 12 aa] | 0.699 ± 0.027 | 0.689 ± 0.026 |
| SRLKKEFEAAAL [IDP2 C-terminal 12 aa] | 0.6762 ± 0.0031 | 0.678 ± 0.085 |
| SSGADNSASSNQ [PAM16 C-terminal 12 aa] | 0.684 ± 0.014 | 0.667 ± 0.029 |
| SSSLSPSLSSWP [YJL020W-A C-terminal 12 aa] | 0.739 ± 0.051 | 0.778 ± 0.17 |
